The values that follow come from patent US20250042992A1 (University of California, published 2025).

For experiment [1], the target named is T1, recombinant fusion protein of human DLK1 extracellular domain (ECD) and monomeric immunoglobulin Fc domain … (human, UniProt P80370 24-303).
T1 construct: also called human DLK1 ECD-mFc fusion protein; not shown: monomeric immunoglobulin Fc domain (mFc)
T1 sequence: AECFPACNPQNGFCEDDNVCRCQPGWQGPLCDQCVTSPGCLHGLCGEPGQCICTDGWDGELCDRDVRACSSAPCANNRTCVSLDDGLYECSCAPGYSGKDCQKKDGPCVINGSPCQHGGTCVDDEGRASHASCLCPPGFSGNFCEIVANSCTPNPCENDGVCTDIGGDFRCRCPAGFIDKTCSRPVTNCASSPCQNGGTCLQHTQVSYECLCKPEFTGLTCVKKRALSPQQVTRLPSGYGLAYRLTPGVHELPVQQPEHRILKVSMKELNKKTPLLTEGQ
Description: Octet384 binding kinetics using recombinant protein DLK1 ECD-mFc, row Ka (1/Ms).

Experiment [2] has as its target T2, monkey DLK1 fused to mGFP, overexpressed on HEK293T cells (monkey (crab-eating macaque), UniProt A0A2K5TMQ6 24-383).
T2 construct: whole, on cells; also called crab-eating macaque DLK1; not shown: mGFP fluorescent protein fused to DLK1
T2 sequence: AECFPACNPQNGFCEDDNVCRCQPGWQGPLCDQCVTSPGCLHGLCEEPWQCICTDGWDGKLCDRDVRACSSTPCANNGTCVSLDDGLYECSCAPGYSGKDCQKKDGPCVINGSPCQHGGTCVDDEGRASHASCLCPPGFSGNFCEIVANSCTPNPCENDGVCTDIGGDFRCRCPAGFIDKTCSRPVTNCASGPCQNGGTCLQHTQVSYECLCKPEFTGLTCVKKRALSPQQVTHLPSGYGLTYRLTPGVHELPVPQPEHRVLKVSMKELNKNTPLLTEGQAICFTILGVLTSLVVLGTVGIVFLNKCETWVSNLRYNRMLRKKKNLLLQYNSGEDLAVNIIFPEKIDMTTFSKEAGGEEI
Description: KinExA on HEK293T DLK1mGFP Monkey mass pop cells detached by Versene; Error% 2.87; 95% CI 1.33nM - 3.45nM; equilibrium curves 400pM, 50nM. On the technique in general: Kinetic exclusion samples the free partner from a solution-phase mixture.

Experiment [3] has as its target T1, recombinant fusion protein of human …. The experiment in a line: ELISA on recombinant DLK1 ECD-mFc. (In general: An ELISA detects its analyte on a solid surface through an enzyme-linked reagent.)
The target is the same in experiment [4]. The experiment in a line: Octet384 binding kinetics using recombinant protein DLK1 ECD-mFc.
The target of experiment [5] is T3, human DLK1 long form (isoform 1, DLK1-FL) fused to mGFP, overexpressed on HEK293T cells (human, UniProt P80370 24-383).
T3 construct: also called HEK293T DLK1 mGFP G06 (long form); DLK-FL; not shown: mGFP fluorescent protein fused to DLK1
T3 sequence: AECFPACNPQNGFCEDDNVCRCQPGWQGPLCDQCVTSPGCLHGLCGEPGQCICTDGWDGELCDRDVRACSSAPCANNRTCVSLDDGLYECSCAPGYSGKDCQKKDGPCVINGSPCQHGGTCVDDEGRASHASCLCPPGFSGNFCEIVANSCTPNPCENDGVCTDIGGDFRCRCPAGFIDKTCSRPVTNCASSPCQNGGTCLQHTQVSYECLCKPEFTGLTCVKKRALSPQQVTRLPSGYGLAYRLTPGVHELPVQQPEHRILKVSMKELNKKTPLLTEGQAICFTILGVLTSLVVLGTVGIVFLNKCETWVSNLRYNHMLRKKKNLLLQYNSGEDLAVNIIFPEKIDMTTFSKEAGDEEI
The experiment in a line: KinExA on cells, block Cross Reactivity to Three Tox Models - KD by KinExA (nM), row HEK293T Human DLK1mGFP G05.

Experiment [6] has as its target T3, human DLK1 long form (isoform 1, …). The experiment in a line: KinExA on cells, row HEK293 DLK1-mGFP G05 Cells.
For experiment [7], the target named is T1, recombinant fusion protein of human …. Description: ELISA with human DLK1 ECD-mFc fusion protein.
The target is the same in experiment [8]. Description: Octet384 binding kinetics using recombinant protein DLK1 ECD-mFc, row Kdis (1/s).
The target in experiment [9] is T3, human DLK1 long form (isoform 1, …). The experiment in a line: KinExA on HEK293T DLK1mGFP Human Clone G06 cells detached by Versene; Error% 3.83; 95% CI 0.455nM - 2.19nM; equilibrium curves 500pM, 20nM.
Experiment [10] concerns the target T2, monkey DLK1 fused to mGFP, …. Description: KinExA on cells, row HEK293T Monkey DLK1mGFP mass.
Experiment [11] concerns the target T3, human DLK1 long form (isoform 1, …). Description: KinExA on HEK293T DLK1mGFP Human Clone G06 cells detached by Versene; Error% 5.90; 95% CI not defined; equilibrium curves 400pM, 50nM.
The target in experiment [12] is T2, monkey DLK1 fused to mGFP, …. Description: KinExA on HEK293T DLK1mGFP Monkey mass pop cells detached by Versene; Error% 3.92; 95% CI 5.15nM - 17.83nM; equilibrium curves 400pM, 50nM.
The target in experiment [13] is human DLK1 endogenously expressed on COR-L279 small cell lung carcinoma cells (human) (UniProt P80370). Description: KinExA on cells, row CORL-279 cells(adherent).

B1: humanized anti-DLK1 antibody 04-0561-F1 (IgG1) (antibody, V domains shown)
VH: QVQLQESGPGLVKPSETLSLTCTVSGFSLSIYSVHWVRQPPGKGLEWIGLIWGGGSTDYNPSLKSRVTISKDTSKNQVSLKLSSVTAADTAVYYCARKEGNYLWFAYWGQGTLVTVSS
VL: DIVMTQSPDSLAVSLGERVTMNCKSSQSLLQSSNQKNYLAWYQQKPGQPPKLLVYFASTRESGVPDRFSGSGSGTDFTLTISSVQAEDVAVYYCQQHYSIPLTFGQGTKLEIKR
For B1, the kon in experiment [1] came to 48200 M⁻¹ s⁻¹. For the same molecule, the Kd in [2] was found to be 2.19 nM; in [4] it was 0.0186 nM; in [5], 1.11 nM; in experiment [6] it was 1.11 nM; in experiment [9], 1.11 nM; in experiment [10], 2.19 nM. Moreover, the EC50 in experiment [3] was 0.684 nM; in experiment [7], roughly 0.5 nM. In addition, the koff in [8] turned out to be 0.000898 s⁻¹.

B2: humanized anti-DLK1 antibody 04-0547-h2 (IgG1) (antibody, V domains shown)
VH: EVQLVESGGGLVQPGGSLRLSCAASGFSISDYYMAWVRQAPGKGLEWVANINYDGTNTYYADSVKGRFTISRDNSKNTLYLQMNSLRAEDTAVYYCVRSYYYYGMEYWGQGTTVTVSS
VL: DIQMTQSPSSLSASVGDRVTITCRASHDVSTAVAWYQQKPGKAPKLLIYSASYRYTGVPSRFSGSGSGTDFTLTISSLQPEDFATYYCQQHYRIPLTFGQGTKLEIK
notes: human kappa (P01834) and human IgG1 (P01857) constant regions
As for B2, the kon in experiment [1] turned out to be 15500 M⁻¹ s⁻¹. For the same molecule, the dissociation constant Kd in [11] stood at 5.34 nM; in experiment [12], 9.89 nM; in [4], 0.298 nM; in [5], 5.34 nM; in [6], 5.34 nM; in experiment [13], 8.2 nM. The same molecule had an equilibrium dissociation constant (Kd) in experiment [10] of 9.89 nM. The EC50 in experiment [3] was found to be 10.3 nM. For the same molecule, the “fold lower binding affinity (ELISA EC50) than 04-0561-f1 and 04-0562-h10” value in experiment [7] is roughly 20 fold. The koff in experiment [8] was 0.00462 s⁻¹.

As usually defined, the kon is a measure of how fast the partners come together. The term Kd denotes the constant that tells how readily two partners part at equilibrium. A word on the EC50: it is the concentration needed to bring the measured effect to its halfway point. By koff is commonly meant a measure of how fast the partners let go of each other.
